The values below come from US20210261685A1.

The target in this assay is human MerTK endogenously expressed on cells (SK-MEL-5 cells; human macrophages) (human) (UniProt Q12866). Put plainly: cell-based or functional assay.
Sequence of human MerTK endogenously expressed on cells (SK-MEL-5 cells; human macrophages) (human) (Q12866 21-999 limits assumed): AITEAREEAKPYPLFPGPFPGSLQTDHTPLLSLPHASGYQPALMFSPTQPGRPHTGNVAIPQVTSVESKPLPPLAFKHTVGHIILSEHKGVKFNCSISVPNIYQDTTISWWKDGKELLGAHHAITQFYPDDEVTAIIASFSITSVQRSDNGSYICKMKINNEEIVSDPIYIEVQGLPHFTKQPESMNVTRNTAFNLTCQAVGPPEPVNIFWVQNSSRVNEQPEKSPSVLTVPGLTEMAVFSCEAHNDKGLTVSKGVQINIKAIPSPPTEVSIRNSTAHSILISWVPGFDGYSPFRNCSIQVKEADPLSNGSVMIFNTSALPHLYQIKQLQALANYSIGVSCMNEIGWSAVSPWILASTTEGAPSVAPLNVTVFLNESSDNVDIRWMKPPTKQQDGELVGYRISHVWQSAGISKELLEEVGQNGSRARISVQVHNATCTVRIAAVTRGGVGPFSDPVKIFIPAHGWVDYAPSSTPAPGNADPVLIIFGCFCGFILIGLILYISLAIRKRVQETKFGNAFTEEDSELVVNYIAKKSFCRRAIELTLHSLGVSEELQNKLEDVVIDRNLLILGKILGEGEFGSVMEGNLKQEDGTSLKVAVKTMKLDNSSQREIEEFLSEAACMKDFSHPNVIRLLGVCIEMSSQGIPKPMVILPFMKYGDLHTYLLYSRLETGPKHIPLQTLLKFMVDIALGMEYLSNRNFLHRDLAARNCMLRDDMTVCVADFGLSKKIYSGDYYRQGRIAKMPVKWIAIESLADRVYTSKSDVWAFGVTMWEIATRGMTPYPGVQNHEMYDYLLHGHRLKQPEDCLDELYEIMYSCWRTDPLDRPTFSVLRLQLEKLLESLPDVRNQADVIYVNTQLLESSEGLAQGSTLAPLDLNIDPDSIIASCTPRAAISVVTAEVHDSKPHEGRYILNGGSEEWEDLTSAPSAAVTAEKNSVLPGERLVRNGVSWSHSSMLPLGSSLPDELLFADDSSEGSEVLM

B1: MTK-22 (antibody, human IgG1, V domains shown)
VH: QVQLQQPGADLVEPGASVKLSCKASGYTFTSYWMHWVKQRPGQGLEWIGEIDPSDSSSNYNQKFKGKATLTVDKSSSTAYMHLNSLTSEDSAVYYCARRYYYGSLYFDNWGQGTTLTVSS
VL: DVVMTQSHKFMSTSVGDRVSITCKASQDVGTAIAWYQQKPGQSPKLLIYWASTRHTGVPDRFTGSRSGTVFTLTISNVQSEDLADYFCQQYTSYPLTFGSGTKLEIK
In the case of B1, the Gas6-mediated pAKT activity, average IC50, human M2c macrophages turned out to be 0.531 nM.
